The target in series [1] is MBP-AHL17-His (Arabidopsis thaliana, UniProt Q9LTA2 1-276). The experiment in a line: EMSA; reduced by unlabeled probe; EMSA as in Sun et al. 2016; buffer, salt, pH and temperature not given; FAM-labeled probe 1 uM (Fig. S6). The following applies: protein: recombinant; tags: N-terminal MBP; C-terminal 6xHis; label: FAM; blunt. On the technique in general: Mobility shift assays separate free from complexed probe on a gel.

The target in series [2] is T1, MBP-AHL28 (Arabidopsis thaliana, UniProt Q9M9R4 1-206).
T1 sequence: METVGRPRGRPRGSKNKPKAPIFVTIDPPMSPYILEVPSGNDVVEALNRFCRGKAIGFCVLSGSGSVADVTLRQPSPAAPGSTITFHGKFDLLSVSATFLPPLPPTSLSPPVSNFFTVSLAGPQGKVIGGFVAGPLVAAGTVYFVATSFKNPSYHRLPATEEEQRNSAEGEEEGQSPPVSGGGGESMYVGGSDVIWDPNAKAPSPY
Briefly: EMSA; 1.5 ug protein, 1 uM probe; reduced by unlabeled probe; EMSA as in Sun et al. 2016; buffer, salt, pH and temperature not given; FAM-labeled probe 1 uM (Fig. S6). The following applies: protein: recombinant; tags: N-terminal MBP; label: FAM; blunt.

B1: COW1 promoter probe (dsDNA)
DNA 1: TTTCTCTCATATTTAATTTATTTACTTAGAAA
DNA 2: TTTCTAAGTAAATAAATTAAATATGAGAGAAA
With B1, the binding result in series [1] and in series [2] was “binds” in each case.

B2: PRP3 promoter probe (dsDNA)
DNA 1: GTCCAAATATTTATATTATAAGATACATTTTAATATTTAATTATGATTTAGTAGA
DNA 2: TCTACTAAATCATAATTAAATATTAAAATGTATCTTATAATATAAATATTTGGAC
Take B2: the binding result in series [1] and in series [2] was “binds” in each case.

(Values after publication PMC10416611, “Overexpression of AHL proteins enhances root hair production by altering the transcription of RHD6‐downstream genes”.)
